The data set relates to MS2 coat protein. In words: apparent KD of MS2 coat protein; designed switch direction (-1 OFF switch, 1 ON switch): -1; higher = weaker reporter binding. In outline:
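An oligonucleotide input, 200 uM small-molecule ligand, or no input was present during titration of SNAP-549-labelled MS2 coat protein, which was doubled from 0.7 or 1.5 nM to 3 µM. Designed RNA switches had been transcribed on Illumina chips by stalled E. coli RNA polymerase. Apparent KD per design is the median over clusters of curves fitted to normalised cluster fluorescence.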

Setting [1] is: input ligand: microRNA oligo, concentration not stated.
Where [2] appears, read: Eterna round: R95, input ligand: microRNA oligo, concentration not stated.
The mark [3] stands for this setting: Eterna round: R95, input ligand: FMN 200 uM.
[4] abbreviates: Eterna round: R95, input ligand: none.

Consider 29 sequences from the supplement of paper PMC9170038.

For “UGUUGUUCAGGAUAUGGUGUGUUUUACAUGAGGAUCACCCAUGUGGGUCCUGGUUUGGCGUCAGAAGGGAAUGUUG [salish99_ex5_r4_117] (Eterna round: R97, puzzle: Exclusion 5)”, the “apparent KD of MS2 coat protein” value (input ligand: FMN 200 uM) came out at 788 nM and the “apparent KD of MS2 coat protein” value (input ligand: none) was 1040 nM.
For the sequence “UUAAAGGCAGGAUAUACAUUUUUUUUAUUAUCCUCAUUAUUACAUGAGGAUCACCCAUGUAGAAGGGCCAAAUU [Mat - Exclusion 2 - Mod of Hog - D85] (Eterna round: R96, puzzle: Exclusion 2)”, the “apparent KD of MS2 coat protein” value by setting is: (input ligand: FMN 200 uM) 312 nM; under setting [1], 187 nM; (input ligand: none) 357 nM.
For “UUAAAGGCAGGAUAUACAUUUUUUUUAUUAUCCUCAUUAUUACAUGAGGAUCACCCAUGUAGAAGGGCCAAAUU [Mat - Exclusion 2 - Mod of Hog - D85] (puzzle: Exclusion 2)”, the “apparent KD of MS2 coat protein” value under setting [2] was 57.6 nM.
As to “UUAAAUCAUGUAGGAUAUGCGUGGCGAAGCUAUGCAGAAGGACAUGAGGAUCACCCAUGUGCUUGCGUCUGCGUACAGAUGCUA [JL ENG1 1.12] (Eterna round: R96, puzzle: Exclusion NG 1)”, the “apparent KD of MS2 coat protein” value came out at 112 nM (input ligand: FMN 200 uM), 52.8 nM under setting [1] and 63.7 nM (input ligand: none).
As for “UUAAAUCAUGUAGGAUAUGCGUGGCGAAGCUAUGCAGAAGGACAUGAGGAUCACCCAUGUUCUAGCGUCCGCGUACGGAUGCAA [JL Eng1 1.21 mod 10] (Eterna round: R96, puzzle: Exclusion NG 1)”, the “apparent KD of MS2 coat protein” value came to 144 nM (input ligand: FMN 200 uM), 12 nM under setting [1] and 18.6 nM (input ligand: none).
With “UUAAUACAUGAGGAUCACCCAUGUCAGGAUAUUACGAUUACUCCGUGCCCAUUGAGAGUGAGAAGGGAUAUGGA [Eternabot (L2) Solution 58] (Eterna round: R97, puzzle: Exclusion 1)”, the “apparent KD of MS2 coat protein” value (input ligand: FMN 200 uM) came to 19.7 nM and the “apparent KD of MS2 coat protein” value (input ligand: none) came to 18.1 nM.
With “UUAAUACAUGUAGGAUAUGCGUGGCGAAGCUAUGCAGAAGGACAUGAGGAUCACCCAUGUUCCAGCGUCCGCGUACGGAUGCAA [JL Eng1 1.21 mod 12] (Eterna round: R96, puzzle: Exclusion NG 1)”, the “apparent KD of MS2 coat protein” value is, setting by setting: (input ligand: FMN 200 uM) 14.2 nM; under setting [1], 12.4 nM; (input ligand: none) 14.2 nM.
In the case of “UUAAUUAAUGUCAGGAUAUCUAGAGCUUCGGCUCUAGAGAAGGGACAUGAGGAUCACCCAUGUCACUCUUAAUU [BmEx4/3-C1] (Eterna round: R97, puzzle: Brourd's mod of Exclusion 4)”, the “apparent KD of MS2 coat protein” value is 21.1 nM (input ligand: FMN 200 uM) and 15.1 nM (input ligand: none).
Turning to “UUAAUUAAUUAUAUAAGAUCACAUGAGGAUCACCCAUGUAUAUAGGAUAUCAGCUCGUUUAGAGCUGAGAAGGAUAUACAAUAU [ExNG3/3-B2] (Eterna round: R96, puzzle: Exclusion NG 3)”, the “apparent KD of MS2 coat protein” value was 41.8 nM (input ligand: FMN 200 uM), 497 nM under setting [1] and 209 nM (input ligand: none).
In the case of “UUAAUUAAUUGACUGCAAGAUCAACAUGAGGAUCACCCAUGUGAGGAUAUCAGCUCGAUUAGAGCUGAGAAGGCACAAGCAGUC [ExNG3/16-A1] (Eterna round: R96, puzzle: Exclusion NG 3)”, the “apparent KD of MS2 coat protein” value is, setting by setting: (input ligand: FMN 200 uM) 80.4 nM; under setting [1], 15 nM; (input ligand: none) 17.5 nM.
The like results for “UUAAUUACGGUGCUUUAACCUCACAUGAGGAUCACCCAUGUGCAGGAUAUCAGCUCGUGUAGAGCUGAGAAGGGCACUGCACCG [ExNG3/11-A3] (Eterna round: R96, puzzle: Exclusion NG 3)” were, in that order, 14 nM, 8.05 nM and 12.1 nM.
With “UUAAUUCUGAUUCUUGAAAUACAUGAGGAUCACCCAUGUUCACAGGAUAUUGAUUAUGUUAGUUACAAGAAGGGUGUAUCAUAU [JR_ExcNG3_Sub038] (Eterna round: R96, puzzle: Exclusion NG 3)”, the “apparent KD of MS2 coat protein” value runs as follows: (input ligand: FMN 200 uM) 38.9 nM; under setting [1], 26.8 nM; (input ligand: none) 30.6 nM.
For the sequence “UUACAAUGUCACUUACAAGCUUUUUGCUCGUCUUAUAUUACAUGAGGAUCACCCAUGUAGAUCAUGUGGCGUGACCU [JL ViennaUCT Maridi mod 10] (puzzle: Sensor v3, turn-off variant 2)”, the “apparent KD of MS2 coat protein” value under setting [3] worked out at 145 nM, the “apparent KD of MS2 coat protein” value under setting [2] was found to be 46.7 nM and the “apparent KD of MS2 coat protein” value under setting [4] turned out to be 151 nM.
Consider “UUAGCGUAAGUAAGGAUAUGCUGGUCUAAUGAUCAGCAGAAGGUACAUGAGGAUCACCCAUGUGGAUUCGUUAU [Mod of JL 10 - Jieux - Brourd's mod of Exclusion 4] (Eterna round: R97, puzzle: Brourd's mod of Exclusion 4)”, for which the “apparent KD of MS2 coat protein” value (input ligand: FMN 200 uM) was determined as 35.8 nM and the “apparent KD of MS2 coat protein” value (input ligand: none) worked out at 19.2 nM.
Consider “UUAGGCGUCUUUGCUCGUCUUAUUUGGAGAUGACUGUUAACAUGAGGAUCACCCAUGUGUGUGGGAGCUUUGCAGUU [JR_SV3TOV2_Sub022] (puzzle: Sensor v3, turn-off variant 2)”, for which the “apparent KD of MS2 coat protein” value came to 215 nM under setting [3], 377 nM under setting [2] and 271 nM under setting [4].
On to “UUAGGUAAAGGAUAUGUAUGGGCGACCCAUAUGACCGAGUGACAUGAGGAUCACCCAUGUAGAAGGUUGCUGAU [Eternabot (L1) Solution 60] (Eterna round: R97, puzzle: Exclusion 2)”, for which the “apparent KD of MS2 coat protein” value by setting is: (input ligand: FMN 200 uM) 125 nM; (input ligand: none) 95.7 nM.
Turning to “UUAUAAAGUGUGAGGAUAUGCUGGUCCUUAGAUCAGCAGAAGGCACAUGAGGAUCACCCAUGUAAUAUAUUUUU [Mat - Exclusion 4 - JL Mod - D42] (puzzle: Brourd's mod of Exclusion 4)”, under setting [2], the “apparent KD of MS2 coat protein” value amounted to 33.9 nM.
As for “UUAUAGAGAGGAUAUAUAAUGUGAAACAUGAGGAUCACCCAUGUAAUAUUAUGGAUGUAAAUAGAAGGCUCAAUUU [Mat - Exclusion 5 - JL mod - D14] (puzzle: Exclusion 5)”, the “apparent KD of MS2 coat protein” value runs as follows: under setting [3], 29.3 nM; under setting [2], 30.6 nM; under setting [4], 32.4 nM.
For “UUAUAGGCAGGAUAUACAUGAGGAUCACCCAUGUAAAUUUUUCGUUUAACUUGAAUGUGUAGAAGGGCCAUAUU [Ex3 #57] (Eterna round: R97, puzzle: Exclusion 3)”, the “apparent KD of MS2 coat protein” value turned out to be 22.3 nM (input ligand: FMN 200 uM) and 21.6 nM (input ligand: none).
Consider “UUAUGAGUAGGAUAUGAGCCAAAAUACAUGAGGAUCACCCAUGUCGGGUUCAUGGAGGGCUCAGAAGGAUUCAAUA [Exclusion 5 - Laarte Mod] (Eterna round: R97, puzzle: Exclusion 5)”, for which the “apparent KD of MS2 coat protein” value by setting is: (input ligand: FMN 200 uM) 105 nM; (input ligand: none) 17 nM.
Regarding “UUAUUAAAUGUAGGAUAUGCAUAUUAUUAUUAUGCAGAAGGACAUGAGGAUCACCCAUGUAUAUUAUUAUUAUUUAUUAUAUAU [Title] (Eterna round: R96, puzzle: Exclusion NG 1)”, the “apparent KD of MS2 coat protein” value under setting [1] was found to be 36.1 nM.
Same read-out and setting: under “UUAUUAUAUGUAGGAUAUGCAUAUUAUUAUUAUGCAGAAGGACAUGAGGAUCACCCAUGUAUGUUAUUAUUAUAUAUUAUAUAU [Title] (Eterna round: R96, puzzle: Exclusion NG 1)” stands 20.7 nM; under “UUAUUAUAUGUAGGAUAUGCGUAUUAUUGUUAUGCAGAAGGACAUGAGGAUCACCCAUGUAUAUUAUUGUUGUAUAUUAUAUAU [Title] (Eterna round: R96, puzzle: Exclusion NG 1)”, 20.7 nM.
With “UUCACAUGGACAUAAGAUCACAUGAGGAUCACCCAUGUGAAUAACAAGCUUUUUGUUCGUCUUAUGUCCAAUAAUAA [Stov1/14-B1] (Eterna round: R97, puzzle: Sensor, turn-off variant 1)”, the “apparent KD of MS2 coat protein” value was found to be 12.3 nM (input ligand: FMN 200 uM) and 12.6 nM (input ligand: none).
The like results for “UUCAUGUGAGGAUAUUAGUAGUAAAUAAAUAAAAUUAUUACUGAGAAGGUACAUGAGGAUCACCCAUGUUCCUU [Salish 062 v22] (Eterna round: R97, puzzle: Exclusion 4)” were, in that order, 18.5 nM and 13.9 nM.
Consider “UUCCUACAUGAGGAUCACCCAUGUCAGGAUAUCUCCUCACCGCGAAAAGGCGGUGAAAAGAGAAGGGACAGGAA [Usbian] (puzzle: Exclusion 1)”, for which the “apparent KD of MS2 coat protein” value runs as follows: under setting [3], 16 nM; under setting [2], 10.7 nM; under setting [4], 13.8 nM.
Turning to “UUCCUCACUUCUUUGUCUCACAUGAGGAUCACCCAUGUAAUAUAGGAUAUGCUUAGUAUUUUUAUGCAGAAGGAUAUUAGUUUU [JR_ExcNG3_Sub085] (Eterna round: R96, puzzle: Exclusion NG 3)”, the “apparent KD of MS2 coat protein” value amounted to 169 nM (input ligand: FMN 200 uM), 32.8 nM under setting [1] and 39.8 nM (input ligand: none).
As for “UUCCUCAUAACAUGAGGAUCACCCAUGUAUUAUUUGGUAACUGAGGAUAUACUUUUAAUGUUUAUGUAGAAGGCAGAUACAGUU [JR_ExcNG3_Sub017] (Eterna round: R96, puzzle: Exclusion NG 3)”, the “apparent KD of MS2 coat protein” value runs as follows: (input ligand: FMN 200 uM) 165 nM; under setting [1], 80.4 nM; (input ligand: none) 109 nM.
For “UUCGUGCAGCAAAGCUGUACGCGUACAUGAGGAUCACCCAUGUAGGAUAUGGUAGGCAAAGCUUACUAGAAGGAUAUGGUGAGC [Mat - Exclusion NG 3 - Mod of JL - D80] (Eterna round: R96, puzzle: Exclusion NG 3)”, the “apparent KD of MS2 coat protein” value came to 51.9 nM (input ligand: FMN 200 uM), 36.8 nM under setting [1] and 35.2 nM (input ligand: none).
